Results taken from a protein production outcome set (Wang et al. 2014).

Assay: label from the status in PepcDB records

Row | Sequence | protein production
1 | MTQLQISLLLTATISLLHLVVATPYEAYPIGKQYPPVARVNESFTFQISNDTYKSSVDKTAQITYNCFDLPSWLSFDSSSRTFSGEPSSDLLSDANTTLYFNVILEGTDSADSTSLNNTYQFVVTNRPSISLSSDFNLLALLKNYGYTNGKNALKLDPNEVFNVTFDRSMFTNEESIVSYYGRSQLYNAPLPNWLFFDSGELKFTGTAPVINSAIAPETSYSFVIIATDIEGFSAVEVEFELVIGAHQLTTSIQNSLIINVTDTGNVSYDLPLNYVYLDDDPISSDKLGSINLLDAPDWVALDNATISGSVPDELLGKNSNPANFSVSIYDTYGDVIYFNFEVVSTTDLFAISSLPNINATRGEWFSYYFLPSQFTDYVNTNVSLEFTNSSQDHDWVKFQSSNLTLAGEVPKNFDKLSLGLKANQGSQSQELYFNIIGMDSKITHSNHSANATSTRSSHHSTSTSSYTSSTYTAKISSTSAAATSSAPAALPAANKTSSHNKKAVAIACGVAIPLGVILVALICFLIFWRRRRENPDDENLPHAISGPDLNNPANKPNQENATPLNNPFDDDASSYDDTSIARRLAALNTLKLDNHSATESDISSVDEKRDSLSGMNTYNDQFQSQSKEELLAKPPVQPPESPFFDPQNRSSSVYMDSEPAVNKSWRYTGNLSPVSDIVRDSYGSQKTVDTEKLFDLEAPEKEKRTSRDVTMSSLDPWNSNISPSPVRKSVTPSPYNVTKHRNRHLQNIQDSQSGKNGITPTTMSTSSSDDFVPVKDGENFCWVHSMEPDRRPSKKRLVDFSNKSNVNVGQVKDIHGRIPEML | failed
2 | MTQLQQSVIESQPGKLSDYLGHTRRNRFSIRLFSGLIGFILVLAVMATGYWLVFASDRYVSEASVIIRKTDSVTAPSFDLSMLIAGVAGVNRADQLLLREYLLSVDMLKKLDTELDLHAHYSDEHYDLLSRMWLKDMEWFHRHYLSRVSIEYDDYAGVLRINAQAYDPEIARAISNLLVREGERYMNQISHELAETQVSFLTTQVNLAQLRFQQVRQKLLAYQNKKGLLSPQATVESLNTLIAKLEEQRAQLKTQLASLPRTLDRNHPNLVMLRQSLAAIDRQITDEKAKLANPTGKTLNITMEEFQRLEMEVTFAQELYKAALTALEKGRIDATRMLDKVSVLQAPTLPEYPMEPRRIYNTLVTLLFALMLAGILKLLEGIILDHVD | failed
3 | MTQPLRQYREKRDFRATAEPAGAARRPRAAARASEGLSFVIQRHQARRLHYDFRLEIDGVLVSWAVPKGPSRDPSVKRLAVHVEDHPLEYGGFSGDIPKGQYGAGHVDIWDSGVWIPRGDPRQGLRRGKLHFALRGRRLAGDWVLVRMSGEQDQWLLRKEDDEAAVPGDDAERAPATPPPAPEHAPAATPRGRRAAMPHTLAPQLATLVDSPPHGPGWSYEVKYDGYRILAACSAGGVRLVSRGNEDWQARMAPLARALGALKLGRGWLDGEVVVLDERGVADFQLLQNALDGQAEGLVFVAFDLPFWNGEDLRALPLQARQERLEDLLREVPEDAPLMLTQRLPVADDTEGKAAWNEACRLSLEGLICKRLDAPYRSGRSQGWLKLKCRPRQEFVIGGYTEPAGARRHLGALLVGLRQGRQLRYAGRVGTGFGAATLRTLGQRLAALRQDAKPFSGDVPRGRGDAAIHWVSPELVAEVNYAGITRDGLLRQASFAGLRADKPASEVRGEVAARPPAAKAATPSRRAGDGRAEVAGVRISHPDRLAYREPDYTKLQLAEYYAAIGPHILPHLRQRRVALLRCPDGAGTTCFFQKHLSQSLPAGVRRDGGHLVIESLPGLIALVQYGAIEFHTWGADTRHPDTPDRITLDLDPGPGVAWPAIVEGAQMARLLMQEVGLEPFLKTTGGKGLHLVAPLRPTQPWDTVKDFARALARQLAVALPDRFTANMAKARRERRIFVDYLRNGNGATAVAAFSARARDGAPVSMPLSWDALDAGDDLRGARWNIANALEQARRKPDPWADYAASRRTLGSRMQARLPRD | failed
4 | MTQPNIIMTRVDERLIHGQGQLWVKFLNCNTVIVANDAVSEDKIQQSLMKTVIPSSIAIRFFSIQKVIDIIHKASPAQSIFIVVKDLQDAKLLVEGGVPITEINIGNIHKTDDKVAITQFISLGETDKSAIRCLAHDHHVVFNTKTTPAGNSASDVDILDYI | not failed
5 | MTQPVPVHYTLRPVSPEAHLFEATVTISHPAKDGQVFFLPAWIPGSYMIREFSKHIVGMAASAGGKPVALRQLEKNRWQAAPAKGALTLRYQVYAFDLSVRGAYLDGERGFFNGTSVFLAAEGYEGEACTVDIHAPEGKAYAEWKVATSLPAEDVKKKTGFGRYRAADYDELIDHPVEMGDFKKVSFKACGVPHEFVVSGRFQGELKRLAEDTRKICECQIKLFGEPAPFDRYVFMLFVGKDIYGGLEHRASTALVANRDDLPAPGAAEIGDGYLKLLGLISHEYFHSWNVKRMKPAAFTPYDLNREGMTRLLWAFEGITSYYDDLTLVRCGLIDEKRYLGLLAETITGVQRGAGRLKQTLEQSSFEAWTKYYRQDENSPNSIVSYYTKGSLAALALDLLIRRDSKGKQSLDDVMRALWAKWLADGKGLEEGEWEKIAIETTGLKLKPFFDLALRSTGELPLAELLKSQGVELKFEAAQGASDRGGVVDAFAGKPAPLTLGVKTAADAAGVKLLQVLDGGAAQAAGLSGGDVVVAVDKLRAYDLDKQIARFAAGDKIKLHAFRRDELMTFEVAPQAAPEDTCRLKLDAGGGKWIAGRLEHHHHHH | failed
6 | MTQQHLFPSTKAKSYKLFCFYLLILTSLLHPATAGAADITQQLHRPVNSSMGRQSRDEADSLLRVAEQQYAAGCADKAIDSGLQALDIYHLIGDLRAKGLTYNLLAKAYIELGRFKEGEDALRRRLAIARDTKDFQSQIFALNNLGTLLLQAGEPKAAGETIQEAYTIADNVKNIDGEGLSLSNLGLVSSRLGDYNKAIKLYETALIFRRRTGDAPGEMNTLNNLGDAYLAAGNYPDTIGTYGAAMRIAKTLGDRSNQLRAIDGLVTAHSAVGRYERAFDLLQQRLTIAQELQNLREELKSFESYAKLYEQLGNYPTARNFYERAIIISQTLEDNKQEVFLRDRLTQMLRSQKSILK | failed
7 | MTQTTVPVIFDLDGTLVDPAGGITGGISAALREMDLPVPEQAVLNSMVGPKLSDSLLHLADVPGELVDETIERYRRHYKETGIGQSKLYPGVFDLLEYFAETGRPVAVATQKPQSIARLVLEHHKIADFFVSIRGAADDESLKANTASGKVEIVGAALKDLHSQPAVMVGDRHQDVAGALANGLDCIGVSWGFAPDGELEEAGAVAVVSTALELRSKIEELDAVRAAALSEVQNDGSL | failed
8 | MTRACNLYVFKNKYVSFNLLDSPNSNPKLLKISLPFNFMDEFEGLLKAVGSAPWYKLIGMVPKLQGDRVVVEMEIDRSKHLQALGTTHGGAIASVLDSAIGLNVNREVVKMGKTAVTAQLNIHYIRPVTEGKIVGVGMPMHIGSKVTVGYGEVRNEEGELVAAGTATFYIIDRRFRDLEHHHHHH | failed
9 | MTRAQPEPVQVVKQRRDAALRALVSGVPYITYLGIQFDRRGDELTAVLPFDEKLIGNPMLPAIHGGVTAAFLEVASIIELSWSVLWHEMEQGRLDPDQIEARLPRLPKTIDFTVDYLRSGLPRDAYARARVNRSGRRYASVHVEAWQDNRLRPFAQATGHFLMPARNDLEHHHHHH | not failed
10 | MTRHNEIIKCAEKYQLHIQPQTISLNESGLDFQVAFGKDKHGVEWVLRLPRRPDVYKRTKPEKQTVDFLQKNVSFEIPKWKVHAKDLIAYPKLTGKPAATIDPEIQNYVWEIEHKPLPENFINTLAETLVDLHNIPEENINVQHINIKTIQEIKNDFQRRMNKVKETYGVSDELWNRWKQWLENDELWPRHATMIHGDLHPGHIMVDNQANVTGLIDWTEATHSDPSMDFIGHHRVFDDEGLEQLITAYGKAGGEIWPRMKEHIIELNAVFPMFIAEFAMESGESAYETMALKELGMKE | failed
11 | MTRLTRFAVAPLHSMTRRLADVASARVAPDLVVTGARVLSTYSERIHANREVWITGGRVAAVKPAGTARKAWSGVALYDAAGAIIAPGLVDPHIHIESSMVTACAYAEAALLNGTTTIFCDSHEIGNVMDVAGVEAMLEDARQAPLSIFLTVPSTVPATSAELETAGGDLTPDKIAGLFDRWPEAVALGEKMDFVPVTMGDERSHAILAAALKRGRPVSGHVYGREFVAAYAASGVTDTHEAIDRDIADDLLDAGVWVFLRGGPPTTPWHSLPQAIRTITELGASHKRTAVCTDDRDADDLLLFGLDWVVREAVKAGMSPEQAWSMGSLHGATRFGMEGDIGGLGGGRRADLVLMDDQLKPQCTWYGGELVVEHGKITPRLDQALSQRYQYPKAAYATVKLPEKVKLTPELPAKACTVNAIKTALPGITLIHEKVAIEPAKDWPTLFARYGLCFVTVVERHGKSAGNVAYGLLKDFGLKRGAVASSVGHDSHNIIVAGTNEPDMQVAIAAIKEHQGAVCVVADGKVRALVPLPIAGLLSDKRVTEVAEEVKVLKKEWAEAGCTIPYMGFNLIPLSVIPEIRITDKGLVLVPQMELAPLFE | failed
